From IntAct's records for PubMed 17986458

Target: VHL, P40337-3

| Substance | effect of a mutation on the interaction |
| --- | --- |
| Diacylglycerol kinase iota (Homo sapiens), O75912 P147A;P895A | disrupting interaction |
| Diacylglycerol kinase iota (Homo sapiens), O75912 P895A | disrupting interaction |
